Data published in the Human Domainome abundance scans (Beltran et al. 2025).
± gives the uncertainty stated by the source.

B1: Nuclear receptor subfamily 1 group D member 2, residues 103 to 171; numbered along this chain, Q14995 (parent)
chain: CKVCGDVASGFHYGVHACEGCKGFFRRSIQQNIQYKKCLKNENCSIMRMNRNRCQQCRFKKCLSVGMSR

Variants of: B1
Test: abundance fitness (aPCA) (normalised: wild type 0, dead -1); higher = more abundant; growth selection in yeast, the domain comes from the species named
Details: Homo sapiens

Compared with CKVCGDVASGFTYGVHACEGCKGFFRRSIQQNIQYKKCLKNENCSIMRMNRNRCQQCRFKKCLSVGMSR [H12T], CKVCGDVASGFSYGVHACEGCKGFFRRSIQQNIQYKKCLKNENCSIMRMNRNRCQQCRFKKCLSVGMSR [H12S] is higher in abundance fitness: -0.546 ± 0.15 for the first, -0.301 ± 0.077 for the second.

CKVCGDVASGFIYGVHACEGCKGFFRRSIQQNIQYKKCLKNENCSIMRMNRNRCQQCRFKKCLSVGMSR [H12I] and CKVCGDVASGFGYGVHACEGCKGFFRRSIQQNIQYKKCLKNENCSIMRMNRNRCQQCRFKKCLSVGMSR [H12G] are within error of each other in abundance fitness: -0.747 ± 0.33 for the first, -0.421 ± 0.075 for the second.

First: CKVCGDVASGFWYGVHACEGCKGFFRRSIQQNIQYKKCLKNENCSIMRMNRNRCQQCRFKKCLSVGMSR [H12W]
Second: CKVCGDVASGFYYGVHACEGCKGFFRRSIQQNIQYKKCLKNENCSIMRMNRNRCQQCRFKKCLSVGMSR [H12Y]
The abundance fitness of the first is higher: 0.033 ± 0.08 for the first, -0.253 ± 0.12 for the second.

CKVCGDVASGFFYGVHACEGCKGFFRRSIQQNIQYKKCLKNENCSIMRMNRNRCQQCRFKKCLSVGMSR [H12F] and CKVCGDVASGFDYGVHACEGCKGFFRRSIQQNIQYKKCLKNENCSIMRMNRNRCQQCRFKKCLSVGMSR [H12D] are within error of each other in abundance fitness: -0.514 ± 0.16 for the first, -0.44 ± 0.13 for the second.

CKVCGDVASGFPYGVHACEGCKGFFRRSIQQNIQYKKCLKNENCSIMRMNRNRCQQCRFKKCLSVGMSR [H12P] and CKVCGDVVSGFHYGVHACEGCKGFFRRSIQQNIQYKKCLKNENCSIMRMNRNRCQQCRFKKCLSVGMSR [A8V] are within error of each other in abundance fitness: -0.835 ± 0.22 for the first, -0.798 ± 0.15 for the second.

CKVCGDVPSGFHYGVHACEGCKGFFRRSIQQNIQYKKCLKNENCSIMRMNRNRCQQCRFKKCLSVGMSR [A8P] and CKVCGDVFSGFHYGVHACEGCKGFFRRSIQQNIQYKKCLKNENCSIMRMNRNRCQQCRFKKCLSVGMSR [A8F] are within error of each other in abundance fitness: -0.893 ± 0.17 for the first, -0.855 ± 0.43 for the second.

Compared with CKVCGDVRSGFHYGVHACEGCKGFFRRSIQQNIQYKKCLKNENCSIMRMNRNRCQQCRFKKCLSVGMSR [A8R], CKVCGDVSSGFHYGVHACEGCKGFFRRSIQQNIQYKKCLKNENCSIMRMNRNRCQQCRFKKCLSVGMSR [A8S] is higher in abundance fitness: -0.897 ± 0.1 for the first, -0.265 ± 0.073 for the second.

First: CKVCGDVLSGFHYGVHACEGCKGFFRRSIQQNIQYKKCLKNENCSIMRMNRNRCQQCRFKKCLSVGMSR [A8L]
Second: CKVCGDVNSGFHYGVHACEGCKGFFRRSIQQNIQYKKCLKNENCSIMRMNRNRCQQCRFKKCLSVGMSR [A8N]
The abundance fitness of the first is lower: -0.998 ± 0.17 for the first, -0.476 ± 0.29 for the second.

CKVCGDVDSGFHYGVHACEGCKGFFRRSIQQNIQYKKCLKNENCSIMRMNRNRCQQCRFKKCLSVGMSR [A8D] and CKVCGDVGSGFHYGVHACEGCKGFFRRSIQQNIQYKKCLKNENCSIMRMNRNRCQQCRFKKCLSVGMSR [A8G] are within error of each other in abundance fitness: -0.724 ± 0.42 for the first, -0.597 ± 0.08 for the second.

CKVCGDVKSGFHYGVHACEGCKGFFRRSIQQNIQYKKCLKNENCSIMRMNRNRCQQCRFKKCLSVGMSR [A8K] and CKVCGDVCSGFHYGVHACEGCKGFFRRSIQQNIQYKKCLKNENCSIMRMNRNRCQQCRFKKCLSVGMSR [A8C] are within error of each other in abundance fitness: -0.42 ± 0.13 for the first, -0.494 ± 0.16 for the second.

CKVCGDVYSGFHYGVHACEGCKGFFRRSIQQNIQYKKCLKNENCSIMRMNRNRCQQCRFKKCLSVGMSR [A8Y] and CKVCGDVQSGFHYGVHACEGCKGFFRRSIQQNIQYKKCLKNENCSIMRMNRNRCQQCRFKKCLSVGMSR [A8Q] are within error of each other in abundance fitness: -0.782 ± 0.3 for the first, -0.842 ± 0.23 for the second.

CKVCGDVMSGFHYGVHACEGCKGFFRRSIQQNIQYKKCLKNENCSIMRMNRNRCQQCRFKKCLSVGMSR [A8M] and CKVCGDVTSGFHYGVHACEGCKGFFRRSIQQNIQYKKCLKNENCSIMRMNRNRCQQCRFKKCLSVGMSR [A8T] are within error of each other in abundance fitness: -0.584 ± 0.14 for the first, -0.363 ± 0.15 for the second.

First: CKVCGDVASGFHKGVHACEGCKGFFRRSIQQNIQYKKCLKNENCSIMRMNRNRCQQCRFKKCLSVGMSR [Y13K]
Second: CKVCGDVASGFHPGVHACEGCKGFFRRSIQQNIQYKKCLKNENCSIMRMNRNRCQQCRFKKCLSVGMSR [Y13P]
The abundance fitness of the first is higher: -0.491 ± 0.1 for the first, -0.89 ± 0.16 for the second.

Going from CKVCGDVASGFHHGVHACEGCKGFFRRSIQQNIQYKKCLKNENCSIMRMNRNRCQQCRFKKCLSVGMSR [Y13H] to CKVCGDVASGFHCGVHACEGCKGFFRRSIQQNIQYKKCLKNENCSIMRMNRNRCQQCRFKKCLSVGMSR [Y13C], the abundance fitness falls from -0.145 ± 0.15 to -0.496 ± 0.1.

CKVCGDVASGFHSGVHACEGCKGFFRRSIQQNIQYKKCLKNENCSIMRMNRNRCQQCRFKKCLSVGMSR [Y13S] and CKVCGDVASGFHIGVHACEGCKGFFRRSIQQNIQYKKCLKNENCSIMRMNRNRCQQCRFKKCLSVGMSR [Y13I] are within error of each other in abundance fitness: -0.576 ± 0.071 for the first, -0.73 ± 0.12 for the second.

CKVCGDVASGFHMGVHACEGCKGFFRRSIQQNIQYKKCLKNENCSIMRMNRNRCQQCRFKKCLSVGMSR [Y13M] and CKVCGDVASGFHTGVHACEGCKGFFRRSIQQNIQYKKCLKNENCSIMRMNRNRCQQCRFKKCLSVGMSR [Y13T] are within error of each other in abundance fitness: -0.732 ± 0.16 for the first, -0.572 ± 0.089 for the second.

First: CKVCGDVASGFHWGVHACEGCKGFFRRSIQQNIQYKKCLKNENCSIMRMNRNRCQQCRFKKCLSVGMSR [Y13W]
Second: CKVCGDVASGFHVGVHACEGCKGFFRRSIQQNIQYKKCLKNENCSIMRMNRNRCQQCRFKKCLSVGMSR [Y13V]
The abundance fitness of the first is higher: -0.152 ± 0.065 for the first, -0.528 ± 0.087 for the second.

Compared with CKVCGDVASGFHFGVHACEGCKGFFRRSIQQNIQYKKCLKNENCSIMRMNRNRCQQCRFKKCLSVGMSR [Y13F], CKVCGDVASGFHLGVHACEGCKGFFRRSIQQNIQYKKCLKNENCSIMRMNRNRCQQCRFKKCLSVGMSR [Y13L] is lower in abundance fitness: 0.059 ± 0.089 for the first, -0.453 ± 0.078 for the second.

First: CKVCGDVASGFHQGVHACEGCKGFFRRSIQQNIQYKKCLKNENCSIMRMNRNRCQQCRFKKCLSVGMSR [Y13Q]
Second: CKVCGDVASGFHEGVHACEGCKGFFRRSIQQNIQYKKCLKNENCSIMRMNRNRCQQCRFKKCLSVGMSR [Y13E]
The abundance fitness of the first is lower: -0.615 ± 0.13 for the first, -0.099 ± 0.093 for the second.

In the case of CKVCGDVASGFHAGVHACEGCKGFFRRSIQQNIQYKKCLKNENCSIMRMNRNRCQQCRFKKCLSVGMSR [Y13A], the abundance fitness is reported as -0.459 ± 0.09.
